This is an account of results in patent US20230416709.

Common to all, as to test: cell_activity
Data set [1] relates to GFP_PPR(L)-FokI M50 (Flavobacterium okeanokoites (FokI domain)). The conditions noted are these: Fn reporter HEK293T, paired with GFP_PPR(R).
The test system of data set [2] is B2M_PPR(L)-FokI M50 (Flavobacterium okeanokoites (FokI domain)). The conditions noted are these: Fn reporter HEK293T, paired with B2M_PPR(R).
Data set [3] deals with TALEN-A-FokI M49 (MBP fusion) (Flavobacterium okeanokoites (FokI domain)). The conditions noted are these: E. coli B2P, 0.1 mM IPTG 15 min 37 C.
Data set [4] relates to TALEN-A-FokI M47 (MBP fusion) (Flavobacterium okeanokoites (FokI domain)). The conditions noted are these: E. coli B2P, 0.1 mM IPTG 15 min 37 C.
Data set [5] deals with TALEN-A-FokI M50 (MBP fusion) (Flavobacterium okeanokoites (FokI domain)). The conditions noted are these: E. coli B2P, 0.1 mM IPTG 15 min 37 C; 24% in second experiment (p75).
Data set [6] relates to TALEN-A-FokI M50(G473) (MBP fusion) R473G (Flavobacterium okeanokoites (FokI domain)). The conditions noted are these: E. coli B2P; M50 24% in same experiment.
Data set [7] deals with TALEN-A-FokI M48 (MBP fusion) (Flavobacterium okeanokoites (FokI domain)). Particulars: E. coli B2P, 0.1 mM IPTG 15 min 37 C.
Data set [8] concerns TALEN-A-FokI wild-type (MBP fusion) (Flavobacterium okeanokoites (FokI domain)). Particulars: E. coli B2P, 0.1 mM IPTG 15 min 37 C.
For data set [9], the system named is B2M_PPR(R)-FokI M50 (Flavobacterium okeanokoites (FokI domain)). Particulars: Fn reporter HEK293T, paired with B2M_PPR(L).
The subject of data set [10] is GFP_TALEN(R)-FokI M49 (Flavobacterium okeanokoites (FokI domain)). Particulars: SSA reporter HEK293T, pair; value in figure only.
Data set [11] deals with GFP_TALEN(R)-FokI M48 (Flavobacterium okeanokoites (FokI domain)). Particulars: SSA reporter HEK293T, pair; value in figure only.
Data set [12] relates to GFP_TALEN(R)-FokI M50 (Flavobacterium okeanokoites (FokI domain)). Particulars: SSA reporter HEK293T, pair; value in figure only.
Data set [13] relates to GFP_TALEN(R)-FokI M47 (Flavobacterium okeanokoites (FokI domain)). Particulars: SSA reporter HEK293T, pair; value in figure only.
The subject of data set [14] is B2M_TALEN(R)-FokI M49 (Flavobacterium okeanokoites (FokI domain)). The conditions noted are these: SSA reporter HEK293T, pair; value in figure only.
Data set [15] deals with B2M_TALEN(R)-FokI M48 (Flavobacterium okeanokoites (FokI domain)). Particulars: SSA reporter HEK293T, pair; value in figure only.
The test system of data set [16] is B2M_TALEN(R)-FokI M50 (Flavobacterium okeanokoites (FokI domain)). Particulars: SSA reporter HEK293T, pair; value in figure only.
Data set [17] relates to B2M_TALEN(R)-FokI M47 (Flavobacterium okeanokoites (FokI domain)). Particulars: SSA reporter HEK293T, pair; value in figure only.
Data set [18] deals with GFP_PPR(R)-FokI M50 (Flavobacterium okeanokoites (FokI domain)). Particulars: Fn reporter HEK293T, paired with GFP_PPR(L).
The subject of data set [19] is GFP_TALEN(L)-FokI M49 (Flavobacterium okeanokoites (FokI domain)). The conditions noted are these: SSA reporter HEK293T, pair; value in figure only.
For data set [20], the system named is GFP_TALEN(L)-FokI M48 (Flavobacterium okeanokoites (FokI domain)). The conditions noted are these: SSA reporter HEK293T, pair; value in figure only.
Data set [21] relates to GFP_TALEN(L)-FokI M47 (Flavobacterium okeanokoites (FokI domain)). The conditions noted are these: SSA reporter HEK293T, pair; value in figure only.
For data set [22], the system named is GFP_TALEN(L)-FokI M50 (Flavobacterium okeanokoites (FokI domain)). Particulars: SSA reporter HEK293T, pair; value in figure only.
Data set [23] deals with B2M_TALEN(L)-FokI M50 (Flavobacterium okeanokoites (FokI domain)). Particulars: SSA reporter HEK293T, pair; value in figure only.
The test system of data set [24] is B2M_TALEN(L)-FokI M48 (Flavobacterium okeanokoites (FokI domain)). Particulars: SSA reporter HEK293T, pair; value in figure only.
The subject of data set [25] is B2M_TALEN(L)-FokI M47 (Flavobacterium okeanokoites (FokI domain)). The conditions noted are these: SSA reporter HEK293T, pair; value in figure only.
Data set [26] relates to B2M_TALEN(L)-FokI M49 (Flavobacterium okeanokoites (FokI domain)). Particulars: SSA reporter HEK293T, pair; value in figure only.

On to “ACGACTTCTTCAAGT (double strand) [GFP_PPR(L) half-site]”, for which the activity (fold vs WT FokI) in [1] amounted to 1.5.
In data set [2], “AATGGAAAGTCAAA (double strand) [B2M_PPR(L) half-site]” returned an activity (fold vs WT FokI) of 2.2.
For the sequence “AGCCGAAATCATCGCAGCCGCTGCCGCGAGCTCCTGCGATGATTTCGGCT (double strand) [TALEN-A target site (inverted repeat)]”, the activity in [3] is 45 % survival; in [4], 29 % survival; in data set [5] it was 28 % survival; in data set [6], under 0.05 % survival; in data set [7], 37 % survival; in [8] it was 0.0001 % survival.
“AGCAATTCAGGAAA (double strand) [B2M_PPR(R) half-site]” yielded an activity (fold vs WT FokI) in [9] of 2.2.
With “TTGCCGTAGGTGGCA (double strand) [GFP_TALEN(R) half-site]”, the activity (fold vs WT FokI) in [10], in data set [11], in data set [12] and in [13] was over 1 each time.
As to “GACTTTCCATTCTC (double strand) [B2M_TALEN(R) half-site]”, the activity (fold vs WT FokI) in [14], in data set [15], in data set [16] and in data set [17] was over 1 throughout.
On to “CCTGGACGTAGCCTT (double strand) [GFP_PPR(R) half-site]”, for which the activity (fold vs WT FokI) in data set [18] was 1.5.
For “CAGCGTGTCCGGCGA (double strand) [GFP_TALEN(L) half-site]”, the activity (fold vs WT FokI) in data set [19], in data set [20], in data set [21] and in data set [22] was over 1 each time.
Turning to “CCAAAGATTCAGGT (double strand) [B2M_TALEN(L) half-site]”, the activity (fold vs WT FokI) in data set [23], in [24], in data set [25] and in data set [26] was over 1 throughout.
